Non-standard residues stand in square brackets, D forms with d. No end group written: not given here. pGlu = O=C1CC[C@@H](C(=O)O)N1
Tests used:
[1] = target: T1, mature RmL (Rhizomucor miehei lipase) (Rhizomucor miehei, UniProt P19515); experiment: GLAD lipase assay: inhibition of mature RmL by propeptide; type: biochemical; settings: isolated propeptide; RmL–propeptide molar ratio 1:64, 15 min incubation, 0.2 M HEPES, 1 mM CaCl2, 10 ppm Triton X-100, pH 8.5; substrate olive oil/4-methylumbelliferyl oleate on cellulose, detergent model B; room temperature; fluorescence 365/445 nm; Figure 4a
T1 construct: mature RmL; 95–363; 29,537.7; 29,538.2; made in house; host or cells: Aspergillus oryzae
T1 sequence (P19515 whole entry, looked up): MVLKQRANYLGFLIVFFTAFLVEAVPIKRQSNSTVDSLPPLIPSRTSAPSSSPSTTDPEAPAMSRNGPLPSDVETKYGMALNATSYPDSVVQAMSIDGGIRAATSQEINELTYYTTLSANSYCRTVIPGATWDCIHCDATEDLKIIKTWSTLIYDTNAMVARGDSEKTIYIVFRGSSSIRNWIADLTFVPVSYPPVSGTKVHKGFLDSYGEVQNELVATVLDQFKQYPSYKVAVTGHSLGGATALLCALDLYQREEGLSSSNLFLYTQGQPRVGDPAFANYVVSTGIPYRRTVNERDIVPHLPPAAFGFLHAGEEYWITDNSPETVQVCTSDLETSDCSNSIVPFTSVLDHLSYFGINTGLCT
Experimental: Inhibition of hydrolytic activity was determined by using the industrially relevant GLAD assay, measuring the release of 4-methylumbelliferone (4-MU) by purified mature RmL incubated with and without a propeptide (RmL–propeptide incubated at a molar ratio of 1:64) for 15 min in 0.2 M HEPES, 1 mM CaCl2, and 10 ppm Triton X-100 (adjusted to pH 8.5). As a substrate, we used cellulose cotton linters, Avicel PH-101 (Sigma-Aldrich, 11365), uniformly coated with a 4.5:1 mixture of olive oil (Sigma-Aldrich, O-1514) and 4-methylumbelliferyl oleate (oleic acid 4-methylumbelliferyl ester (Sigma-Aldrich, 75164): 4 mg/mL in n-hexane (Sigma-Aldrich, 15671)). The coated cellulose fibers were suspended in 0.2 M HEPES, 3 mM CaCl2, 0.5 mM MgCl2, and 10 ppm Triton X-100 mixed with 3.3 g/L detergent solution using detergent model B (model B composition: 1% (w/w) NaOH, 7.2% (w/w) LAS, 3% (w/w) SLES, 5.5% (w/w) soy and coco fatty acids, 6.6% (w/w) AEO, 3.33% (w/w) triethanol amine, 2% (w/w) Na-citrate, 0.5% (w/w) DTMPA, 6% (w/w) MPG, 3% EtOH, 1.7% (w/w) glycerol, 1% (w/w) sodium formate, 0.1% (w/w) PCA; adjusted to pH 8.5) and RmL −/+ propeptide. The enzyme activity at room temperature was followed by measuring the fluorescence (kinetic mode) every 30 s at an excitation wavelength of 365 nm and emission wavelength of 445 nm from 1 to 6 min. […]

[2] = target: T2, mature Rhizomucor miehei lipase (Rhizomucor miehei, UniProt P19515 95-363); experiment: fluorescence polarisation; 0.9 uM A488-labelled peptide mixed with mature RmL at 0.0002-10 uM, in duplicate; 50 mM HEPES pH 7.5, 100 mM NaCl, 1 mM CaCl2; 30 min at room temperature; Langmuir 1:1 fit; settings: both partners purified
T2 sequence (looked up): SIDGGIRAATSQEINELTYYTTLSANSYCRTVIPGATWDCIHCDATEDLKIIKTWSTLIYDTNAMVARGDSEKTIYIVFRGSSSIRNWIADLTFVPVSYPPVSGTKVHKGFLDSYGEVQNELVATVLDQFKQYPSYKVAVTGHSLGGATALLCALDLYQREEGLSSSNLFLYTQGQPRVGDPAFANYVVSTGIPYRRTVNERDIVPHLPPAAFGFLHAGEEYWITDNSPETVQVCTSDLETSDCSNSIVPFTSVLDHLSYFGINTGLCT

[3] = target: T2, mature Rhizomucor miehei lipase; experiment: crystal structure; wild-type ProRmL sample, 10 mg/mL; 30% PEG8K, 0.1 M Na-cacodylate pH 6.5, 0.2 M ammonium sulfate; 293 K; molecular replacement with 3TGL; settings: both partners purified
Rhizomucor miehei lipase = settings: activity-related mutation in propeptide; cited from earlier work
Excerpt: The buried surface area between the propeptide and the mature enzyme is ∼1771.2 Å^2 (analyzed using PISA,[23] corresponding to a strong protein–protein interaction).[24] The most significant interactions between the propeptide and mature enzyme from the PISA analysis are given in Table S1 (Supporting Information). One of these interactions involves Leu81, which is one of the activity-related mutations identified in ref ([17]) and is a part of the hydrophobic cluster at the ...

[4] = Zymogram of native PAGE (lipase activity on olive oil plate); type: biochemical; settings: native PAGE gel placed on agarose plate: 50 mM HEPES (pH 7), 0.625% polyvinyl alcohol, 1.9% (v/v) olive oil, 0.05% brilliant green; Figure 8C
Excerpt: The compositions for native PAGE were as follows. Resolving gel: 12% acrylamide-bis-acrylamide; 0.4 M Tris (pH 8.8), 0.1% APS, 0.04% TEMED. Stacking gel: 5.1% acrylamide-bis-acrylamide; 0.25 M Tris (pH 6.8), 0.1% APS, 0.1% TEMED. Loading dye: 0.06 M Tris (pH 6.8), 0.01% bromophenol blue, 10% glycerol. Running buffer: 3 g/L Tris base, 14.4 g/L glycine. Gel (B) is stained with brilliant blue. Zymogram: After electrophoresis, the native PAGE was placed on an agarose/brilliant blue plate (4% Litex HSB agarose protein grade, 50 mM HEPES (pH 7), 0.625% polyvinyl alcohol, 1.9% (v/v) olive oil, and 0.05% brilliant green (Sigma)).

B1: propeptide: Cleaved propeptide, separated from the mature enzyme, residues 30–94 (protein)
chain: [pGlu]SNSTVDSLPPLIPSRTSAPSSSPSTTDPEAPAMSRNGPLPSDVETKYGMALNATSYPDSVVQAM
modifications: also: N-glycosylation (GlcNAc after EndoH), site not given here, hexose at O-glycosylation site, site not given here
For B1, the “inhibition of lipase activity” value [1] was “clear inhibition of activity”.

For SDVETKYGMALNATSYC(A488) [propeptide fragment SDVETKYGMALNATSYC-A488], the Kd [2] was 200 nM.

B2: Rhizomucor miehei lipase propeptide (cleaved propeptide) (domain or fragment, UniProt P19515 30-94, looked up)
chain: [pGlu]SNSTVDSLPPLIPSRTSAPSSSPSTTDPEAPAMSRNGPLPSDVETKYGMALNATSYPDSVVQAM
modifications: also: N-glycosylation (GlcNAc after EndoH), site not given here, hexose at O-glycosylation site, site not given here
B2: binds [3].

B3: L81V: activity-related propeptide mutation L81V of R. miehei lipase identified in ref 17 (protein, UniProt P19515 25-363, looked up, variant L81V)
pro-form: VPIKRQSNSTVDSLPPLIPSRTSAPSSSPSTTDPEAPAMSRNGPLPSDVETKYGMAVNATSYPDSVVQAMSIDGGIRAATSQEINELTYYTTLSANSYCRTVIPGATWDCIHCDATEDLKIIKTWSTLIYDTNAMVARGDSEKTIYIVFRGSSSIRNWIADLTFVPVSYPPVSGTKVHKGFLDSYGEVQNELVATVLDQFKQYPSYKVAVTGHSLGGATALLCALDLYQREEGLSSSNLFLYTQGQPRVGDPAFANYVVSTGIPYRRTVNERDIVPHLPPAAFGFLHAGEEYWITDNSPETVQVCTSDLETSDCSNSIVPFTSVLDHLSYFGINTGLCT
modifications: pro-form
For B3, the “activity of the mutant” value (Rhizomucor miehei lipase) is listed as “increased activity”.

B4: mature RmL: the mature wild-type enzyme without propeptide, residues 95–363 (protein)
chain: T2 sequence (looked up)
With B4 the “lipase activity in zymogram at the band corresponding to mature RmL” value [4] was “much stronger in mature RmL than in wild-type ProRmL”.

Source: paper PMC6648591 (ACS Omega, 2019)
